This is an account of results in PMC11408855, “The structure of the SufS–SufE complex reveals interactions driving protected persulfide transfer in iron-sulfur cluster biogenesis” (The Journal of Biological Chemistry, 2024).

To fix the notation:
B1: BODIPY-FL-labeled T116A EcSufE in the C51A/E107C background (natural protein, Escherichia coli)
chain: MALLPDKEKLLRNFLRCANWEEKYLYIIELGQRLPELRDEDRSPQNSIQGAQSQVWIVMRQNAQGIIELQGDSDAAIVKGLIAVVFILYDQMTPQDIVNFDVRPWFCKMALTQHLAPSRSQGLEAMIRAIRAKAAALS
modifications: BODIPY-FL maleimide label (labeling efficiency 60 to 80%)
notes: EcSufE of Escherichia coli, UniProt P76194, with C51A, E107C and T116A; also called T116A SufE; source: E. coli BL21(DE3)Δsuf, pET21, purified, labeled with BODIPY-FL maleimide
B2: BODIPY-FL-labeled Q121A EcSufE in the C51A/E107C background (natural protein, Escherichia coli)
chain: B1 chain with A116T, Q121A
modifications: BODIPY-FL maleimide label (labeling efficiency 60 to 80%)
notes: EcSufE of Escherichia coli, UniProt P76194, with C51A, E107C and Q121A; also called Q121A SufE; source: E. coli BL21(DE3)Δsuf, pET21, purified, labeled with BODIPY-FL maleimide
B3: BODIPY-FL-labeled R119A EcSufE in the C51A/E107C background (natural protein, Escherichia coli)
chain: B1 chain with A116T, R119A
modifications: BODIPY-FL maleimide label (labeling efficiency 60 to 80%)
notes: EcSufE of Escherichia coli, UniProt P76194, with C51A, E107C and R119A; also called R119A SufE; R119A EcSufE (in double mutant background); source: E. coli BL21(DE3)Δsuf, pET21, purified, labeled with BODIPY-FL maleimide
B4: BODIPY-FL-labeled Q121E EcSufE in the C51A/E107C background (natural protein, Escherichia coli)
chain: B1 chain with A116T, Q121E
modifications: BODIPY-FL maleimide label (labeling efficiency 60 to 80%)
notes: EcSufE of Escherichia coli, UniProt P76194, with C51A, E107C and Q121E; also called Q121E SufE; source: E. coli BL21(DE3)Δsuf, pET21, purified, labeled with BODIPY-FL maleimide
B5: BODIPY-FL-labeled T116S EcSufE in the C51A/E107C background (natural protein, Escherichia coli)
chain: B1 chain with A116S
modifications: BODIPY-FL maleimide label (labeling efficiency 60 to 80%)
notes: EcSufE of Escherichia coli, UniProt P76194, with C51A, E107C and T116S; also called T116S SufE; source: E. coli BL21(DE3)Δsuf, pET21, purified, labeled with BODIPY-FL maleimide
B6: BODIPY-FL-labeled R119K EcSufE in the C51A/E107C background (natural protein, Escherichia coli)
chain: B1 chain with A116T, R119K
modifications: BODIPY-FL maleimide label (labeling efficiency 60 to 80%)
notes: EcSufE of Escherichia coli, UniProt P76194, with C51A, E107C and R119K; also called R119K SufE; source: E. coli BL21(DE3)Δsuf, pET21, purified, labeled with BODIPY-FL maleimide
B7: C51A/E107C EcSufE (unlabeled, crystallised) (natural protein, Escherichia coli)
chain: B1 chain with A116T
notes: EcSufE of Escherichia coli, UniProt P76194, with C51A and E107C; also called SufE C51A/E107C; SufE (C51A, E107C)
B8: EcSufS, untagged (wild type) (enzyme, Escherichia coli)
chain: MIFSVDKVRADFPVLSREVNGLPLAYLDSAASAQKPSQVIDAEAEFYRHGYAAVHRGIHTLSAQATEKMENVRKRASLFINARSAEELVFVRGTTEGINLVANSWGNSNVRAGDNIIISQMEHHANIVPWQMLCARVGAELRVIPLNPDGTLQLETLPTLFDEKTRLLAITHVSNVLGTENPLAEMITLAHQHGAKVLVDGAQAVMHHPVDVQALDCDFYVFSGHKLYGPTGIGILYVKEALLQEMPPWEGGGSMIATVSLSEGTTWTKAPWRFEAGTPNTGGIIGLGAALEYVSALGLNNIAEYEQNLMHYALSQLESVPDLTLYGPQNRLGVIAFNLGKHHAYDVGSFLDNYGIAVRTGHHCAMPLMAYYNVPAMCRASLAMYNTHEEVDRLVTGLQRIHRLLG
modifications: PLP (pyridoxal 5'-phosphate) cofactor
notes: EcSufS, cysteine desulfurase SufS of Escherichia coli, UniProt P77444; Untagged version used for crystallography and with the EcSufE variants; In samples with cysteine the active site cysteine is thought to carry a persulfide; also called SufSA; SufSB

As a reminder, the stoichiometry N is a count of units in the complex or per binding partner.

Changes are numbered by the printed parent chain. Names and notes keep the numbering of the source.

The target in one data set is B8. Briefly: fluorescence polarisation; 100 nM BODIPY-FL-labeled EcSufE titrated with EcSufS; 50 mM Mops pH 8.0, 150 mM NaCl, 0.1 mg/ml bovine serum albumin, 25 °C, 30 min; absence of cysteine; apparent KD. Particulars: both partners purified. For orientation: Fluorescence polarisation rises when a labelled molecule tumbles more slowly, as on binding a larger partner.
With B1, the Kd was 2300 nM.

For the molecule B2, the Kd is 5900 nM.

For B3, the Kd was determined as 300 nM.

On to B4, for which the Kd was 7000 nM.

As to B5, the Kd came to 2200 nM.

With B6, the Kd is 1600 nM.

The next data set deals with B8. Briefly: crystal structure; 230 μM SufS, 230 μM SufE (C51A, E107C) and 2 mM Cys; sitting drop vapor diffusion, PEG2000 MME, 0.1 M KSCN, 20 °C. As to conditions: both partners purified.
Take B7: the “stoichiometry N” value amounted to 1.

A further data set concerns the molecule itself. The data set is described as above.
Details: not given
B8: the binding result is listed as “binds”.

Another data set addresses B8. Briefly: fluorescence polarisation; 100 nM BODIPY-FL-labeled EcSufE titrated with EcSufS; 50 mM Mops pH 8.0, 150 mM NaCl, 0.1 mg/ml bovine serum albumin, 25 °C, 30 min; presence of 500 μM cysteine; apparent KD. As to conditions: both partners purified.
For the molecule B1, the Kd is 800 nM.

As for B2, the Kd was found to be 3600 nM.

As for B3, the Kd was 500 nM.

Turning to B4, the Kd turned out to be 500 nM.

B5: the Kd amounted to 3100 nM.

B6: the Kd was 900 nM.

A further data set has as its target SufE (Escherichia coli) (UniProt P76194). The experiment in a line: fluorescence polarization. As to conditions: cited from earlier work.
In the case of SufS (from UniProt P77444), the Kd was 5000 nM.
